Assay in all cases: Determination of kinetic constants with APTS-labelled acceptors
What all share (assay type): biochemical, Neisseria meningitidis

Series [1] deals with CC(=O)N[C@H]1[C@H](O[C@@H]([C@H](O)[C@H](CNc2cc(S(=O)(=O)O)c3ccc4c(S(=O)(=O)O)cc(S(=O)(=O)O)c5ccc2c3c54)NC(C)=O)[C@H](O)CO)O[C@H](CO)[C@@H](O[C@@H]2O[C@H](CO)[C@H](O)[C@H](O)[C@H]2O)[C@@H]1O. The following applies: other: apparent; APTS-labelled acceptor, CMP-Neu5Ac 200 μM, room temperature. The protocol: (§1) Measurement of Sialyltransferase Activity and Survey of Oligosaccharide Acceptors--FCHASE-labelled oligosaccharides were prepared as described above, while the APTS-labelled oligosaccharides were prepared by reductive amination of reducing saccharides according to the method described by Guttman et at. (Anal. Biochem233:234 (1996)) The Gal-β-APTS acceptor was derived from labelling of lactose; the Gal-α-APTS acceptor was derived from labelling of melibiose; the N-acetyllactosamine (LacNAc) acceptor was synthesized by APTS labelling of chitobiose, followed by enzymatic modification with bovine β-Galactosyl transferase to produce the LacNAc moiety-, the Gal-α-1.4-Gal-β acceptor was enzymatically synthesized from β-Gal-APTS with the α-1,4-galactosyltransferase from N. meningitidis. All of the reductive amination products were purified by gel permeation chromatography on Toyopearl HW4OF (Sigma-Aldrich), 1.5 cm×15 cm column, using water as the eluant. It should be mentioned that all of these molecules have the terminal reducing sugar ring opened in the process of labelling. APTS-saccharides were quantitated by measuring the A455, and using an extinction coefficient of 17160 M^-1 cm^-1 . The TMR-labelled oligosaccharides were prepared as described by Zhao et al. (1994) Glycobiology 4:239-242. For the TMR labelled acceptors we used an extinction coefficient of 80,000 M^-1 cm^-1 for quantitation. The sialyltransferase activity was routinely measured using 0.5 mM FCHASE-N-acetyllactosamine as the acceptor and the assay conditions as described above. For measurement of Km, and kcat values, assays were performed with the APTS labelled saccharides at room temperature. Assays were monitored so that for all acceptor concentrations, no more than 10% conversion to product occurred. The ranges of acceptor and donor concentrations were determined empirically, then a range spanning 0.2Km, up to 5Km, was used to obtain the values. Data were examined using the Grafit™3.0 software package (Erithacus Software, London, UK).
(§2) The reaction mixtures from the FCHASE- and APTS-labelled acceptors were analyzed by capillary electrophoresis performed with a Beckman instruments (Fullerton, Calif.) P/ACE 5510 equipped with a 3 mW Argon-ion laser induced fluorescence detector, λ excitation=488 nm λ emission=520 nm. The Capillary was of bare silica 75 μ X 57 cm, with the detector at 50 cm. The capillary was conditioned before each run by washing with 0.2 M NaOH for 2 min., water for 2 min., and either 20 mM sodium phosphate buffer, pH 7.4 or sodium tetraborate, pH 9.3, 2 min. Samples were introduced by pressure injection for 2-5 seconds, and the separation was performed at 18 kV, 75 μA. Peak integration was performed with the Beckman PACE-Station software (version 1).

Series [2] relates to CC(=O)N[C@H]1[C@H](O[C@H]2[C@@H](O)[C@@H](CO)O[C@@H](O[C@@H]([C@H](O)[C@@H](O)CNc3cc(S(=O)(=O)O)c4ccc5c(S(=O)(=O)O)cc(S(=O)(=O)O)c6ccc3c4c65)[C@H](O)CO)[C@@H]2O)O[C@H](CO)[C@@H](O)[C@@H]1O[C@@H]1O[C@H](CO)[C@H](O)[C@H](O)[C@H]1O. Particulars: other: apparent; APTS-labelled acceptor, CMP-Neu5Ac 200 μM, room temperature. The protocol: as §1, §2
Series [3] relates to CC(=O)N[C@H]1[C@H](O[C@H]2[C@@H](O)[C@@H](CO)O[C@@H](O[C@@H]([C@H](O)[C@@H](O)CNc3cc(S(=O)(=O)O)c4ccc5c(S(=O)(=O)O)cc(S(=O)(=O)O)c6ccc3c4c65)[C@H](O)CO)[C@@H]2O)O[C@H](CO)[C@@H](O[C@@H]2O[C@H](CO)[C@H](O)[C@H](O)[C@H]2O)[C@@H]1O. The following applies: other: apparent; APTS-labelled acceptor, CMP-Neu5Ac 200 μM, room temperature. The protocol:
as §1, §2

Series [4] relates to CC(=O)N[C@H]1[C@H]([C@H](O)[C@H](O)CO)O[C@](OP(=O)(O)OC[C@H]2O[C@@H](n3ccc(N)nc3=O)[C@H](O)[C@@H]2O)(C(=O)O)C[C@@H]1O. The following applies: other: acceptor LacNAc-APTS (0.8 mM) or lacto-N-neotetraose-APTS (0.2 mM). The protocol: as §1, §2
In series [5] the test system is O=S(=O)(O)c1cc(NC[C@H](O)[C@@H](O)[C@H](O[C@@H]2O[C@H](CO)[C@H](O)[C@H](O)[C@H]2O)[C@H](O)CO)c2ccc3c(S(=O)(=O)O)cc(S(=O)(=O)O)c4ccc1c2c34. Particulars: other: apparent; APTS-labelled acceptor, CMP-Neu5Ac 200 μM, room temperature. Here is the method:
as §1, §2

Series [6] deals with O=S(=O)(O)c1cc(NC[C@H](O)[C@@H](O)[C@H](O[C@@H]2O[C@H](CO)[C@H](O[C@H]3O[C@H](CO)[C@H](O)[C@H](O)[C@H]3O)[C@H](O)[C@H]2O)[C@H](O)CO)c2ccc3c(S(=O)(=O)O)cc(S(=O)(=O)O)c4ccc1c2c34. Particulars: other: apparent; APTS-labelled acceptor, CMP-Neu5Ac 200 μM, room temperature. The protocol: as §1, §2

What is called Km is the substrate concentration at which the rate is half of its maximum. A word on the kcat: it is the maximal rate divided by the concentration of active sites. With “purified recombinant α-2,3-sialyltransferase (Neisseria meningitidis MC58)”, the Km was 67 µM in series [1]; 113 µM in series [2]; 42 µM in series [3]; 20 µM in series [4]; 168 µM in series [5]; 139 µM in series [6]. Also, the kcat stood at 0.118 s⁻¹ in series [1], 0.0383 s⁻¹ in series [2], 0.0633 s⁻¹ in series [5] and 0.013 s⁻¹ in series [6].

The values are drawn from patent publication US6096529A, “Recombinant α-2,3-sialyltransferases and their uses” (priority 1997, dated 2000).
